Measured values from patent US20170037124A1 (Regeneron, published 2017).

T1: peptide from the N-terminal coiled-coil region of human ANGPTL3 (hANGPTL3 peptide, SEQ ID NO: 338) (human)
T1 construct: also called hANGPTL3 shift peptide
T1 peptide: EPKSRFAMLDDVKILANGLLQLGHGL

T2: human ANGPTL8 peptide (hANGPTL8 peptide, SEQ ID NO: 337) (human)
T2 construct: also called N-terminal region ANGPTL8 peptide
T2 peptide: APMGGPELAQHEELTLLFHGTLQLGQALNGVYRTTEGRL

T3: peptide from the N-terminal coiled-coil region of human ANGPTL4 (hANGPTL4 peptide, SEQ ID NO: 339) (human)
T3 peptide: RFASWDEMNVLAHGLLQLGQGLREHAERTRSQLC

T4: monkey ANGPTL8 expressed with C-terminal mouse IgG2a Fc tag (MfANGPTL8-mFc; SEQ ID NO: 341) (cynomolgus monkey)
T4 construct: also called cynomolgus monkey ANGPTL8
T4 chain: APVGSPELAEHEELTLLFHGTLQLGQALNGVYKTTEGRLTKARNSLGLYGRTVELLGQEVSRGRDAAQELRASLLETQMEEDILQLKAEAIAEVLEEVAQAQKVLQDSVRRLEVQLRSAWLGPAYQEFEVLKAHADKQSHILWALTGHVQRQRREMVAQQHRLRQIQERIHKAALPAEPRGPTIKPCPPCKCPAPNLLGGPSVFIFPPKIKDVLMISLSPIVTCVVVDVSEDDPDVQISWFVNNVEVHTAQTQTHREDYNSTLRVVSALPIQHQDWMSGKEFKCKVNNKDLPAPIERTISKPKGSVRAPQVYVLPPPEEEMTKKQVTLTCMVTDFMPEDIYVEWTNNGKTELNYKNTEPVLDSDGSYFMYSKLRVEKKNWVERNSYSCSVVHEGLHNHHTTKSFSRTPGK

T5: human ANGPTL8 expressed with C-terminal mouse IgG2a Fc tag (hANGPTL8-mFc; SEQ ID NO: 340) (human)
T5 construct: also called Angiopoietin-like protein 8
T5 chain: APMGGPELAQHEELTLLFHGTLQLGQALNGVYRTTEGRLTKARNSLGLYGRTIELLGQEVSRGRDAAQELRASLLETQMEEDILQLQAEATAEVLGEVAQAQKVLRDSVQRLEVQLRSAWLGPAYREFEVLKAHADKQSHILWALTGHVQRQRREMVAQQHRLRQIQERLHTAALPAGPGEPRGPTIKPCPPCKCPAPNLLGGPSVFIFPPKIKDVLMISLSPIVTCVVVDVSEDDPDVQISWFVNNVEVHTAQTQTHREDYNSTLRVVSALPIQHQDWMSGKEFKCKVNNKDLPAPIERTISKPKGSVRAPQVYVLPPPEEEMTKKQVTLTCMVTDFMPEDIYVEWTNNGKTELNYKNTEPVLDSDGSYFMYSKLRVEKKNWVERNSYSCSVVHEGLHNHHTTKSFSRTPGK

T6: linear peptide 1APMGGPELAQHEELT15 (SEQ ID NO: 348) (human)
T6 construct: Synthesized on a solid support (Pepscan array)
T6 peptide: APMGGPELAQHEELT


Columns and labels:
[1] = biological target: T1, peptide from the N-terminal coiled-coil …; assay: SPR, captured mAb, 500 nM peptide, 25C
Procedure: (§1) The assay utilized a format where ANGPTL8 antibodies were captured on the sensor surface and peptides were injected over the antibody surface. Peptides from the N-terminal coiled-coil region of human ANGPTL3 (hANGPTL3 peptide, SEQ ID NO: 338) and human ANGPTL4 (hANGPTL4 peptide, SEQ ID NO: 339) were also included as controls. Also included was a control antibody (H4H268P from US2011/0159015A1) that binds to the ANGPTL4 peptide and a negative isotype control antibody. All binding studies were performed in 10 mM HEPES pH 7.4, 150 mM NaCl, 3 mM EDTA, and 0.05% v/v Surfactant Tween-20 (HBS-ET running buffer) at 25° C. The HCA sensor surface was derivatized via amine coupling to a monoclonal mouse anti-human Fc antibody (GE, # BR-1008-39), and to this surface was captured approximately 1000 RU of each ANGPTL8 antibody or control antibody. Peptide stock solutions were diluted in HBS-ET running buffer to 500 nM and injected over the antibody-captured surfaces for 4 minutes at a flow rate of 30 μL/minute followed by the dissociation of bound peptide in HBS-ET running buffer for 10 minutes.
(§2) Dissociative half-lives (t½) were calculated from kd as: […]

[2] = biological target: T2, human ANGPTL8 peptide (hANGPTL8 …); assay: SPR, captured mAb, 500 nM peptide, 25C
Procedure: as §1, §2

[3] = biological target: T3, peptide from the N-terminal coiled-coil …; assay: SPR, captured mAb, 500 nM peptide, 25C
Procedure: as §1, §2

[4] = biological target: T4, monkey ANGPTL8 expressed with …; assay: BLI Octet, captured antigen, 100 nM mAb, 25C
Procedure: (§3) Binding of ANGPTL8 antibodies to human and monkey ANGPTL8 proteins was investigated using Bio-layer Interferometry with an Octet HTX biosensor platform (ForteBio, A Division of Pall Life Sciences). All experiments were performed at 25° C. in 10 mM HEPES pH 7.4, 150 mM NaCl, 0.05% v/v Surfactant Tween-20, and 1 mg/ml BSA with the reaction multiwell plate agitated at 1000 rpm. Approximately 1.6 nm of human ANGPTL8 produced with a C-terminal mouse IgG2a Fc tag (hANGPTL8-mFc; SEQ ID NO: 340) or cynomolgus monkey ANGPTL8 produced with a C-terminal mouse IgG2a Fc tag (MfANGPTL8-mFc; SEQ ID NO: 341) was captured onto anti-mFc (AMC) Octet biosensors by submerging the sensors into wells containing 10 μg/mL of each protein for 4 minutes. Under the same conditions a negative control protein with the same mFc tag (hLDLR-mFc) was also coupled to the AMC sensor. All four sensors, […] and one blank, were then submerged into wells containing 100 nM of different ANGPTL8 monoclonal antibodies or an isotype control for 4 minutes.

[5] = biological target: T7, negative control protein with the same mFc tag (hLDLR-mFc) (human; mouse, UniProt P01130 22-788, limits assumed); assay: BLI Octet, captured antigen, 100 nM mAb, 25C
T7 construct: also called Irrelevant control; not shown: mouse IgG2a Fc tag (same mFc tag as hANGPTL8-mFc)
Procedure: as §3

[6] = biological target: T5, human ANGPTL8 expressed with C-terminal …; assay: BLI Octet, captured antigen, 100 nM mAb, 25C
Procedure: as §3

[7] = biological target: T8, anti-mFc (AMC) Octet biosensor, blank; assay: BLI Octet, blank AMC sensor, 100 nM mAb, 25C
T8 construct: Sensor without captured protein, used as blank; also called Blank AMC Sensor
Procedure: as §3

[8] = biological target: T6, linear peptide 1APMGGPELAQHEELT15 (SEQ …); assay: Pepscan peptide array ELISA, 1 µg/ml antibody
Procedure: The binding of antibody to each of the synthesized peptides was tested in a PEPSCAN-based ELISA. The peptide arrays were incubated with primary antibody solution (overnight at 4° C.). […] After washing, the peroxidase substrate 2,2′-azino-di-3-ethylbenzthiazoline sulfonate (ABTS) and 20 μl/ml of 3 percent H₂O₂ were added. After one hour, the color development was measured. The color development was quantified with a charge coupled device (CCD)—camera and an image processing system.

[9] = biological target: T5, human ANGPTL8 expressed with C-terminal …; assay: BLI Octet, captured antigen, 100 nM mAb, 25C; background 0.03 nm
Procedure: as §3

T7 sequence (P01130 22-788 limits assumed): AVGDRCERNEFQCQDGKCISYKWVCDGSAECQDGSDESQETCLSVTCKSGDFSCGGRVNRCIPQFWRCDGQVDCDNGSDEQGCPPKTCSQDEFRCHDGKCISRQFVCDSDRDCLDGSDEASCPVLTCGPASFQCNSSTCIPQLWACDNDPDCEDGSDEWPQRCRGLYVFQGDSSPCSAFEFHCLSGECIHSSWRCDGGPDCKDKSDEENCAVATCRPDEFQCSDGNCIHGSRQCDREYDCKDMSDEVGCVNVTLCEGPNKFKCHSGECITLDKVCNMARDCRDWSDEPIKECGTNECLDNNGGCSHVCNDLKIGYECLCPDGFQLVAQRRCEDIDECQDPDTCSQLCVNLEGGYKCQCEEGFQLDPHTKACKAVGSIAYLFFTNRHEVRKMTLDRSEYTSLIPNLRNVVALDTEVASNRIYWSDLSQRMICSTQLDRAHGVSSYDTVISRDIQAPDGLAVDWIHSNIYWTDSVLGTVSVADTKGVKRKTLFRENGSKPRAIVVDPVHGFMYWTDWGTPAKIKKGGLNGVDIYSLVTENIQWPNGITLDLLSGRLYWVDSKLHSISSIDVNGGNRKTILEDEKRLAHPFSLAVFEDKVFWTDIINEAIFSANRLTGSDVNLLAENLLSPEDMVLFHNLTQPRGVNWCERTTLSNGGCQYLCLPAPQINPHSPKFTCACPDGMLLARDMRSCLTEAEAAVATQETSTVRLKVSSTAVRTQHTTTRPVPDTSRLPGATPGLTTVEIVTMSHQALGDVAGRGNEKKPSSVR

500 nM hANGPTL3 peptide Bound (RU) [1] [RU] | 500 nM hANGPTL8 peptide Bound (RU) [2] [RU] | 500 nM hAngPTL4 peptide Bound (RU) [3] [RU] | mAb Binding Response (nm) [4] [nm] | mAb Binding Response (nm) [5] [nm] | mAb Binding Response (nm) [6] [nm] | mAb Binding Response (nm) [7] [nm] | koff [2] [s⁻¹] | t½ [2] [h] | binding result [8] | binding signal, fold above background [9] [fold] | Binder | binding result [1] | binding result [2] | binding result [3]
0 | 0 | 1 | 0.01 | 0 | 0.05 | 0.03 | – | – | – | – | H4H15334P (antibody, human IgG4, V domains shown, H4H prefix: human IgG4 Fc) VH: QVQLQESGPGLVKPSQTLSLTCTVSGGSINSGGYYWNWIRQHPGKGLEWIGYIYYSGSTYFNPSLKSRVTISIDTSKNQFSLKLSSVTAADTAVYYCAREGIYAFDYWGQGTLVTVSS VL: DIQMTQSPSSLSASVGDRVTITCRASQGIRNDLGWYQQKPGKAPKRLIYSASSLQSGVPSRFGGSGSGTEFTLTISSLQPEDFATYYCLQHNSYPWTFGQGTKVEIK | no binding (tested: <9 RU at 500 nM peptide) | no binding (tested: <9 RU at 500 nM peptide) | no binding (tested: <9 RU at 500 nM peptide)
0 | 43 | 0 | 0.33 | – | 0.32 | 0 | 9.82e-05 | 1.97 | binds | ≥ 10 | H4H15367P2 (antibody, human IgG4, V domains shown, H4H prefix: human IgG4 Fc) VH: QVQLVESGGGVVQPGRSVRLSCGASGFTFKYYGMHWVRQAPGKGLEWVAVIWYDGRNKFYADSVKGRFTISRDNSKNTVNLEMNNLRAEDTAIYYCARDGGTADGDYFDYWGQGTLVTVSS VL: not shown | no binding (tested: <9 RU at 500 nM peptide) | – | no binding (tested: <9 RU at 500 nM peptide)
0 | 0 | 0 | 0.17 | 0 | 0.14 | 0.01 | – | – | – | – | H4H15369P2 (antibody, human IgG4, V domains shown, H4H prefix: human IgG4 Fc) VH: EVQLVESGGGLVQPGGSLRLSCVGTGFTFSNYAMSWVRQAPGKGLEWVSGISGRSSGTFYADSVKGRFTISRDNSQNTLYLQMNSLGAEDTAVYYCAKVSRYNWDYVPFDFWGQGTLVTVSS VL: not shown | no binding (tested: <9 RU at 500 nM peptide) | no binding (tested: <9 RU at 500 nM peptide) | no binding (tested: <9 RU at 500 nM peptide)
-1 | 0 | 0 | 0.39 | 0.02 | 0.34 | 0.01 | – | – | – | ≥ 10 | H4H15330P (antibody, human IgG4, V domains shown, H4H prefix: human IgG4 Fc) VH: QVQLVESGGGLVKPGGSLRLSCAASGFTFSDYYMSWIRQAPGKGLEWISHISGSGRTTHYADSMKGRFTISRDNAKNSLYLQMNSLRAEDTAVYYCVREGGFNWNYEGTFDIWGQGTMVTVSS VL: DIVMTQTPLSSPVTLGQPASISCRSSQSLLHSDQNTYLSWLHQRPGQPPRLLIYKISNRFSGVPDRFSGSGAGTDFTLKISRVEAEDVGIYYCMQGTQFPLTFGGGTKVEIK | – | no binding (tested: <9 RU at 500 nM peptide) | no binding (tested: <9 RU at 500 nM peptide)
0 | 61 | 0 | 0.51 | 0.01 | 0.36 | 0 | 8.29e-05 | 2.32 | – | ≥ 10 | H4H15321P (antibody, human IgG4, V domains shown, H4H prefix: human IgG4 Fc) VH: EVQLVESGGGLVQPGGSLRLSCAASGFTFSSYAMSWVRQAPGKGLEWVSAITGSGGRTYYADSVKGRFTISRDNAKNTLYLQMNSLRAEDTAVYYCAKNFPFDYWGQGTLVTVSS VL: not shown | no binding (tested: <9 RU at 500 nM peptide) | – | no binding (tested: <9 RU at 500 nM peptide)
0 | 0 | 0 | 0.36 | – | 0.39 | 0.01 | – | – | – | ≥ 10 | H4H15362P2 (antibody, human IgG4, V domains shown, H4H prefix: human IgG4 Fc) VH: QVQLVESGGGVVQPGRSLRLSCAASGFTFSSYGMHWVRQAPGKGLEWVAVIWYDGSNKYYADSVKGRFTISRDNSKNTLYLQMNSLRAEDTAVYYCARDWVRFLEWFPHFDYWGQGTLVTVSS VL: not shown | no binding (tested: <9 RU at 500 nM peptide) | no binding (tested: <9 RU at 500 nM peptide) | no binding (tested: <9 RU at 500 nM peptide)
